Data published in patent US20210317231A1 (BYONDIS B V, published 2021).

T1: human 5T4 oncofoetal antigen (human, UniProt Q13641 32-420)
T1 construct: whole, on cells; also called hu 5T4; human 5T4 antigen
T1 sequence (looked up): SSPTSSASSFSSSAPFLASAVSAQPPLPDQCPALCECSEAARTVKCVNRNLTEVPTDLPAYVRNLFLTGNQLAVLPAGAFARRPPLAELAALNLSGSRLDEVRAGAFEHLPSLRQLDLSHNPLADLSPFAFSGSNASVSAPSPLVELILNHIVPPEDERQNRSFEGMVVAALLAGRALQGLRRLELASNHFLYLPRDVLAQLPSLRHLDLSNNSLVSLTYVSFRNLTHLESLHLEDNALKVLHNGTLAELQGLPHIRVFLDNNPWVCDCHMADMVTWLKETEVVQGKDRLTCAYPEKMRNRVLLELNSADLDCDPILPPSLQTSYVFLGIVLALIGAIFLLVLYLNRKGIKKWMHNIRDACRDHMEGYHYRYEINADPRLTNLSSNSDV

T2: cynomolgus monkey 5T4 antigen (cynomolgus monkey, UniProt Q4R8Y9 35-420)
T2 construct: whole, on cells; also called cyno 5T4
T2 sequence (looked up): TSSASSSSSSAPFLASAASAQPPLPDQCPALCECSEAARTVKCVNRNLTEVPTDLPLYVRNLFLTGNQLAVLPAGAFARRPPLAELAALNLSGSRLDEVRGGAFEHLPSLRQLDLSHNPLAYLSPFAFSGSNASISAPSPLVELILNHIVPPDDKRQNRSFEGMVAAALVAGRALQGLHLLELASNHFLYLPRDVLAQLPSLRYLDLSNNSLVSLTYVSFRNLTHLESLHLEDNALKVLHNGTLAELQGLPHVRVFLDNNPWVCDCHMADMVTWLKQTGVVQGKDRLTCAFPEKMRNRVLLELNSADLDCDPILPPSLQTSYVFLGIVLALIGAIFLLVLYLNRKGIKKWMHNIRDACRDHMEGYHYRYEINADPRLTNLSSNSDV


Columns and labels:
[1] = biological target: T1, human 5T4 oncofoetal antigen; assay: flow cytometry, PA-1 cells
Method: (§1) 17 antibodies were selected and affinity to 5T4 antigen was measured using MDA-MB-468 cells, PA-1 cells and Chinese Hamster Ovary (CHO) mammalian cells expressing human or cyno 5T4 antigen (Table 2). In the current application the utilized CHO cells are referred to as CHOZN as these CHO cells expressing human or cyno 5T4 antigen were obtained using the CHOZN® Platform of Sigma-Aldrich. CHOZN cells (SAFC) were transiently transfected, using an Amaxa nucleofector device (Lonza) according to the manufacturer's instructions. Standard, commercially available mammalian expression vectors (SAFC, Life Technologies) were used, which contained the full length human and cyno 5T4 antigen coding sequence (according to accession number NP 006661.1 and Q4R8Y9 respectively), preceded by a human CMV promoter. Transiently transfected CHOZN cells were cultured according the manufacturer's instructions, before being used in antibody binding studies. The 17 selected antibodies are characterised by the amino acid sequences according to the following table (Table 1).
(§2) MDA-MB-468 cells, PA-1 cells or CHOZN cells expressing human or cyno 5T4 antigen (100,000 cells/well in a 96-well plate) were washed three times with ice-cold FACS buffer (1×PBS (Lonza) containing 0.2% v/w BSA (Sigma-Aldrich, St. Louis, Mo.)) and 0.02% v/w NaN3 (Sigma-Aldrich), followed by the addition of a concentration range of each primary mAb (50 μl/well) diluted in ice-cold FACS buffer. After an incubation of 30 minutes at 4° C., cells were washed three times with ice-cold FACS buffer and 50 μl/well secondary mAb (AffiniPure F(ab′)2 fragment Goat-anti-human IgG-APC, 1:6,000 dilution, Jackson Immuno Research) was added. After 30 minutes at 4° C., cells were washed twice and resuspended in 150 μl FACS buffer. Fluorescence intensities were determined by flow cytometry (BD FACSVerse, Fanklin Lakes, N.J.) and indicated as the median fluorescence intensity (MFI). Curves were fitted by nonlinear regression using the sigmoidal dose-response equation with variable slope (four parameters) in GraphPad Prism (version 5.01/6.01 for Windows, GraphPad, San Diego, Calif.). EC₅₀ values were calculated as the concentration in μg/ml that gives a response half way between bottom and top of the curve, when using a 4 parameter logistic fit.

[2] = biological target: T1, human 5T4 oncofoetal antigen; assay: flow cytometry, MDA-MB-468 cells
Method: as §1, §2

[3] = biological target: T2, cynomolgus monkey 5T4 antigen; assay: flow cytometry, CHOZN cells expressing cyno 5T4
Method: as §2

[4] = biological target: T1, human 5T4 oncofoetal antigen; assay: flow cytometry, CHOZN cells expressing hu 5T4
Method: as §1, §2

[5] = biological target: T2, cynomolgus monkey 5T4 antigen; assay: flow cytometry, CHOZN cells expressing cyno 5T4; remark: listed apart in the source
Method: as §1, §2

Row | Binder | EC50 [1] [µg/mL] | EC50 [2] [µg/mL] | fold improvement of binding compared to H8 on cyno 5T4 [3] [fold] | EC50 [4] [µg/mL] | EC50 [5] [µg/mL]
1 | chimeric anti-5T4 monoclonal antibody 829 (antibody, human IgG1, V domains shown) VH: QSLEESGGRLVTPGTPLTLTCTASGFSLSSYDMSWVRQAPGKGLEYIGWINSDDGAYYANWAKGRFTISRTSTTVDLKITSPTTEDTATYFCARDAGSTYLYGLDPWGPGTLVTVSS VL: DVVMTQTPSSVSAGVGGTVTIKCQASQSISSYLAWYQQKPGQRPKLLIYAASTLASGVSSRFKGSGSGTEYTLTINDLESADAATYYCQCTYYGGTYNTFGGGTEVVVK | 0.07 | 0.17 | 32 | 0.24 | 0.22
2 | chimeric anti-5T4 monoclonal antibody 899 (antibody, human IgG1, V domains shown) VH: QSVEESGGRLVTPGTPLTLTCTVSGFSLSSYTMSWVRQAPGKGLEYIGIISSSDGTWYANWVKGRFTISKTSTTVDLKMTSLTTEDTATYFCARDGTGNKYYTWDRLDLWGQGTLVTVSS VL: NIVMTQTPSPVSGAVGGTVTINCQASQSIYNELSWYQQKPGQPPKLLIYYASTLASGVSSRFKGSGSGTQFTLTISGVESVDAATYYCQQGYSSSNVDNVFGGGTEVVVK | 0.05 | 0.09 | 32 | 0.17 | 0.18
3 | chimeric anti-5T4 monoclonal antibody 825 (antibody, human IgG1, V domains shown, also called clone 825) VH: QSVEESGGRLVTPGTPLTLTCTVSGIDLSSYGMGWVRQAPGKGLEYIGIISRNSVTYYATWAKGRFTISKTSTTVDLKMTSPTTEDTATYFCARRATYSGALGYFDIWGPGTLVTVSF VL: GYDMTQTPASVSAAVGGTVTINCQASENIYSTLAWYQQKPGQPPKVLIYDAFDLASGVPSRFKGSGSGTEYTLTISGVQSDDAATYYCQQGYSGTNVDNAFGGGTEVVVK | 0.03 | 0.07 | 32 | 0.13 | 0.14
4 | chimeric anti-5T4 monoclonal antibody 834 (antibody, human IgG1, V domains shown) VH: QSVEESGGRLVTPGTPLTLTCTVSGFSLSTYSMSWVRQAPGKGLEWIGVISRGGSAYYASWAKGRFTISKTSTTVDLKVTSPTTEDTATYFCARGAISSGYYVYDGMDLWGPGTLVTVSS VL: DIVMTQTPGSVEAAVGGTVTIKCQASESISSYLAWYQQKPGQPPKFLIYSASTLASGVPSRFKGSGSGTEFTLTISDLESADAATYYCQCTDYGSDYMGAFGGGTGVVVK | 0.05 | 0.13 | 32 | 0.19 | 0.13
5 | chimeric anti-5T4 monoclonal antibody 789 (antibody, human IgG1, V domains shown, also called clone 789) VH: QSVEESGGRLVTPGTPLTLTCTASGFSLSSYWMSWVRQAPGKGLEWIGIIAGRGSTYYASWAKGRCTISKTSTTVDLKITSPTTEDTAAYFCARVSSIYYTFNLWGQGTLVTVSS VL: AQVLTQTPSSVSAAVGGTVTINCQSSQSVYSNNELSWYQQKPGQPPKLLIYYASTLASGVPSRFKGSGSGTQFTLTISGVQSDDAATYYCQGSYYSGSGWYYAFGGGTEVVVK | 0.03 | 0.1 | 32 | 0.27 | 0.15
6 | chimeric anti-5T4 monoclonal antibody 833 (antibody, IgG1, V domains shown, also called clone 833) VH: QSLEESGGGLVTPGGSLTLTCTGSGIDLSHYVVGWVRQAPGKGLEWIGIIYGSGRTYYANWAKGRFTISKTSTTVDLRIARPTAEDTATYFCARDASVSVYYWGYFDLWGQGTLVTVSS VL: AYDMTQTPVSVEVAVGGTVTIKCQASQSIGSELAWYQQKPGQPPKLLIYRASTLESGVPSRFSGSGSGTEFTLTISGVESADAATYYCQQGYTYSEIDNAFGGGTEVVVK | 0.02 | 0.04 | 32 | 0.14 | 0.08

Results, then the binder that gave them:

Row | EC50 [1] [µg/mL] | EC50 [2] [µg/mL] | fold improvement of binding compared to H8 on cyno 5T4 [3] [fold] | EC50 [4] [µg/mL] | EC50 [5] [µg/mL] | Binder
7 | 0.05 | 0.11 | 32 | 0.2 | 0.17 | chimeric anti-5T4 monoclonal antibody 845 (antibody, human IgG1, V domains shown) VH: QSLEESGGRLVTPGTPLTLTCTVSGIDLSSYTMNWVRQAPGKGLEWIGVITSHNTYYASWAKGRFTISKTSTTVDLKITSPTTEDTATYFCARSNYGSTIYYMGGMDPWGPGTLVTVSS VL: DVVMTQTPASVSAAVGGTVTINCQASQSIGSYLAWYQHQPGQPPKLLIYSASTLESGVSSRFEGSRSGTEYTLTISDLDSADAATYYCQCTDYGASYLGAFGGGTEVVVK
8 | 0.04 | 0.14 | 32 | 0.22 | 0.17 | chimeric anti-5T4 monoclonal antibody 868 (antibody, human IgG1, V domains shown) VH: QSVEESGGRLVTPGTPLTLTCTASGFSLSDYTMGWVRQAPGKGLEWIGIINGYGSTYYANWAKGRFAISKTSTTVDLKITSPATEDTATYFCARGDTGRTYDMHFNLWGQGTLVTVSS VL: AYDMTQTPASVSAAVGGTVTIKCQASESIRSWLAWYQQKPGQPPKLLIYSASTLASGVSSRFKGSGSGTQFTLTIGDLESADAATYYCQQGYTSSNLDNAFGGGTEVLVK
9 | 0.05 | 0.09 | 32 | 0.17 | 0.12 | chimeric anti-5T4 monoclonal antibody 848 (antibody, human IgG1, V domains shown) VH: QSVEESGGRLVTPGTPLTLTCTVSGFSLSSYTMSWVRQAPGKGLEWIGIISSIGSIWYASWAKGRFTISKTSTTVDLKMTSLTTEDTATYFCARDGTGSKYYTWDRLDLWGQGTLVTVSS VL: NIVMTQTPSPVSGAVGGTVTINCQASQSIYNELSWYQQKPGQPPKLLIYYTSTLASGVSSRFKGSGSGTQFTLTISGVESVDAATYYCQQGYSSSDVDNVFGGGTEVVVK
10 | 0.08 | 0.09 | 32 | 0.17 | 0.18 | chimeric anti-5T4 monoclonal antibody 835 (antibody, human IgG1, V domains shown) VH: QSVEESGGRLVTPGTPLTLTCTVSGIDLSSGAMGWVRQAPGKGLEWIGLISSSPITYYANWARGRFTISKTSTTVDLKITSPTTADTATYFCARGYDDYGEIWFNIWGPGTLVTVSL VL: AIEMTQSPPSLSASVGETVRIRCLAGEDIYSSISWYQQKPGKPPTLLIYGASNLESGVPPRFSGSGSGTDYTLTIGGVQAEDAATYYCLGGWSYSSSLTFGAGTKVEIK
11 | 0.02 | 0.1 | 32 | 0.24 | 0.14 | chimeric anti-5T4 monoclonal antibody 841 (antibody, human IgG1, V domains shown) VH: QSLEESGGRLVTPGTPLTLTCKASGFSLSTYWMSWVRQAPGKGLEWIGIMLSYGNTVYANWAKGRFTISKTSSTTVDLKITSPTTEDTATYFCARGLYGGYPNYGVYDLWGQGTLVTVSS VL: DVVMTQTPASVEAAVGGTVTIKCQASQSISSYLSWYQQKPGQPPKLLIYAASNLASGVSSRFKGSRSGTEYTLTISDLESADAATYYCQCTDYGSNYVGAFGGGTEVVVK
12 | 0.04 | 0.08 | 32 | 0.21 | 0.21 | chimeric anti-5T4 monoclonal antibody 843 (antibody, human IgG1, V domains shown) VH: QSLEESGGRLVTPGTPLTLTCTASGFSLNNAYMNWVRQAPGKGLEWIGIINTYGSTYFATWAKGRFTFSKTSTTVDLKITSPTTEDTATYFCARAYAPFSTYSHYYGMDLWGPGTLVTVSS VL: DVVMTQTPSSVSAAVGGTVTIKCQASESIGSWLSWYQQKPGQPPKLLIYEASKLTSGVPSRFKGSGSGTEYTLTISDLESADAATYYCQYTDYGSNYLGTFGGGTEVVVK
